# Assay results published in patent publication US6579848B1, “Depigmenting activity of agouti signal protein and peptides thereof” (The United States of America as represented by the …, priority 1995, dated 2003).
# B1: agouti protein: Recombinant murine agouti signal protein purified from a baculovirus expression system (protein)
# chain: MDVTRLLLATLVSFLCFFTVHSHLALEETLGDDRSLRSDSSMNSLDFSSVSIVALNKKSKKISRKEAEKRKRSSKKKASMKKVARPPPPSPCVATRDSCKPPAPACCDPCASCQCRFFGSACTCRVLNPNC
# Assays:
# Assay type in all cases: cell-based, murine
# MSH receptor = assay: Northern blotting of MSH receptor RNA in melan-a cells; conditions: for RNA level of MSH receptor: 10 nM, 5 days
# Protocol: The effects of agouti protein on expression of TRP1, TRP2, and the MSH receptor were examined.
# Total RNA was extracted from cells using an RNeasy total RNA isolation kit (QIAGEN, Catsworth, Calif.), following the manufacturer's instructions. 20 μg of total RNA was denatured, electrophoresed through 1.0% agarose gels, and transferred overnight at 23° C. to SureBlot nylon hybridization membranes (Oncor, Gaithersburg, Md.) in the standard manner. Filters were prehybridized for 3 hours at 45° C. with Hybrisol I solution (Oncor, 50% formamide, 10% dextran sulfate, 1% SDS and blocking reagent), and then hybridized with a ^32P-labeled probe. […] A commercially available cDNA probe specific for glyceraldehyde-3-phospho-dehydrogenase (GAPDH) was used to standardize RNA loading on the blots. The cDNA probes were labeled using random primer extension and heated to 100° C. for 10 minutes, then cooled on ice for 10 minutes prior to adding to the hybridization solution. Hybridization was performed with the radiolabeled probes in Hybrisol I (3×10^7 cpm/10 ml) overnight at 45° C. with gentle shaking. Following the incubation, the blots were washed for 10 minutes at 23° C. with 2×SSC/10% SDS, then for 10 minutes with 0.2×SSC/0.5% SDS, and finally for 10 minutes with 0.1×SSC/0.1% SDS. The blots were then exposed in phosphoroimager cassettes at 23° C. for 1 hour and the densities of the bands were scanned using ImageQuant software. The % control for each probe was corrected for initial loading using comparison with the GAPDH standard. […] This was repeated as necessary until no remaining probe could be detected.
# tyrosinase = assay: Northern blotting of tyrosinase RNA in melan-a cells; conditions: for RNA level of tyrosinase: 5 days
# Protocol: These techniques were performed as described previously (Aroca et al., 1993). Briefly, 2.0 μg of mRNA, isolated using a total RNA isolation kit and mRNA purification kit (Promega, Madison, Wis.), were electrophoresed and then blotted to Sure-Blot nylon membranes (Oncor, Gaithersburg, Md.), hybridized with ^32P-labeled probes, dehybridized and rehybridized with other probes again as necessary. TYRS-J, the probe specific for tyrosinase, was kindly provided by Drs. H. Yamamoto and T. Takeuchi, Sendai, Japan and is described in Yamamoto et al Japan J. Genetics Vol 62:271-274, 1987. pMT4, specific for TRP1, was provided by Dr. S. Shibahara, Sendai, Japan and is described in Shibahara, S. et al Nucleic Acid Res. Vol 14:2413-2427, 1986. TRP2a, specific for TRP2 was provided by Dr. I. Jackson, Edinburgh, Scotland and is described in Jackson, I et al. EMBO Vol 11:527-535, 1992. gp100, specific for silver, was provided by Dr. Y. Kawakami, Bethesda, Md. and is described in Kawakami et al PNAS, Vol. 91, 6458-6462, 1994.
# Recombinant agouti protein was purified from baculovirus system by Dr. Michael Ollmann in Dr. Gregory Barsh's laboratory by methods known in the art. 2×10^6 cells were seeded per 15 cm diameter dish. The medium was changed everyday, and fresh agouti protein and/or αMSH added everyday usually at 10 nM. To examine transcriptional regulation, total RNA was isolated and Northern blotting performed by methods described in Example 1. The A26 probe to the MSH-R was provided by Dr. R. Cone and is described in Mountjoy et al. Science 257:1248-1251, 1992. At the translational level, metabolic labeling was used in conjunction with immunoprecipitation as described in Example 1. Western blotting and enzyme assay was used to examine function.
# First, it was determined whether the agouti protein had any effect on tyrosinase expression by Northern blotting. After 24 hours, the cells were harvested, total RNA isolated and hybridized with a probe for tyrosinase and detected by a phosphoimager. The activity of each band was measured by phosphoimager and the % control was corrected using GAPDH as a standard. […] It should be noted that in vivo, pheomelanin is synthesized within 24 hours after agouti RNA is apparent. Longer incubation times were also examined. 10 nM of agouti protein was added for 1, 2 or 4 days.
# Total RNA was extracted from cells using an RNeasy total RNA isolation kit (QIAGEN, Catsworth, Calif.), following the manufacturer's instructions. 20 μg of total RNA was denatured, electrophoresed through 1.0% agarose gels, and transferred overnight at 23° C. to SureBlot nylon hybridization membranes (Oncor, Gaithersburg, Md.) in the standard manner. […]
# melan-a cells = assay: Melanin production assay on extracts of treated melan-a cells; conditions: extracts of melan-a cells cultured 5 days; 10 nM
# Protocol: Assays for melanogenic catalytic activities as described below were carried out at pH 6.8, 37° C. for 60 minutes. (1) Tyrosine hydroxylase activity was measured using the [^3H]tyrosine assay (Hearing and Ekel, 1976; Hearing, 1987). This method specifically measures the tritiated water produced during the hydroxylation of tyrosine to DOPA. (2) DOPA oxidase activity was measured using incorporation of [3-^14C]DOPA into acid-insoluble melanin as detailed previously (Aroca et al., 1993). (3) DOPAchrome tautomerase activity was measured by HPLC as the disappearance of DOPAchrome substrate and the production of DHICA rather than DHI; data are converted to pmol products by comparison with known standards. The HPLC assay was detailed previously (Palumbo et al., 1987; Tsukamoto et al., 1992). (4) DHI oxidase and DHICA oxidase activities were measured by HPLC as the disappearance of these substrates from reaction mixtures compared to controls for spontaneous auto-oxidation; data are converted to pmol by comparison with known standard (Aroca et al., 1993). (5) Melanin production was measured using incorporation of [^14C]tyrosine into acid-insoluble melanin, also as detailed previously (Hearing and Ekel, 1976; Hearing, 1987); pmol melanin produced are calculated from the radioactive product. […]
molecule,measurement,setting,value
"α-melanocyte stimulating hormone [MSH, reference compound]",RNA level of MSH receptor,MSH receptor,no significant increase
same,RNA level of tyrosinase,tyrosinase; 10 nM,almost a twofold increase
same,melanin production,melan-a cells,6.3 ± 0.5 pmol/μg protein/hr
B1,RNA level of MSH receptor,MSH receptor,no significant effect
same,level of RNA for the MSH receptor,"MSH receptor; 24 hours, different concentrations",no significant effect
same,expression of tyrosinase (RNA),"tyrosinase; 10 nM, 2 or 4 days incubation",complete inhibition by day 2
same,RNA level of tyrosinase,tyrosinase; 10 nM,nearly a fivefold decrease
same,"expression of tyrosinase (RNA, % control corrected using GAPDH)","tyrosinase; 24 hours, 10 nM and 1 nM",significant dose dependent decreases
same,melanin production,melan-a cells,0.22 ± 0.0 pmol/μg protein/hr
